The chains are these.
T1: human CD154 (human, UniProt P29965 113-261, limits assumed, biotin-labeled)
T1 construct: also called biotin-labeled human CD154; biotinylated human CD154
T1 sequence (looked up): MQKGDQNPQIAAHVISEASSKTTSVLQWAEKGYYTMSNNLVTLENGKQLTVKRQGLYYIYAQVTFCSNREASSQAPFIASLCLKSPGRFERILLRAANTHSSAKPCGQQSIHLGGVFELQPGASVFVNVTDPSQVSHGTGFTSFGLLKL

B1: CE115HA000 A52aE one-arm antibody (antibody, human IgG1, kappa, L234A L235A, N297A, name in Kabat numbering)
heavy: QVQLVESGGGVVQPGRSLRLSCAASGFTFSNAWMHWVRQAPGKGLEWVAQIKEKSNNYATYYAESVKGRFTISRDDSKNSLYLQMNSLKTEDTAVYYCRYVHYGAYYGVDAWGQGTTVTVSSASTKGPSVFPLAPSSKSTSGGTAALGCLVKDYFPEPVTVSWNSGALTSGVHTFPAVLQSSGLYSLSSVVTVPSSSLGTQTYICNVNHKPSNTKVDKKVEPKSCDKTHTCPPCPAPEAAGGPSVFLFPPKPKDTLMISRTPEVTCVVVDVSHEDPEVKFNWYVDGVEVHNAKTKPREEQYASTYRVVSVLTVLHQDWLNGKEYKCKVSNKALPAPIEKTISKAKGQPREPQVYTLPPSRCELTKNQVSLSCAVKGFYPSDIAVEWESNGQPENNYKTTPPVLDSDGSFFLVSKLTVDKSRWQQGNVFSCSVMHEALHNHYTQKSLSLSPDYKDDDDK
chain: EPKSSDKTHTCPPCPAPELLGGPSVFLFPPKPKDTLMISRTPEVTCVVVDVSHEDPEVKFNWYVDGVEVHNAKTKPREEQYNSTYRVVSVLTVLHQDWLNGKEYKCKVSNKALPAPIEKTISKAKGQPREPQVCTLPPSRDELTKNQVSLWCLVKGFYPSDIAVEWESNGQPENNYKTTPPVLDSDGSFFLYSKLTVDKSRWQQGNVFSCSVMHEALHNRYTQKSLSLSP
light: DIVMTQSPLSLPVTPGEPASISCRSSQSLVHSNRNTYLHWYQQKPGQAPRLLIYKVSNRFSGVPDRFSGSGSGTDFTLKISRVEAEDVGVYYCGQGTQVPYTFGQGTKLEIKRTVAAPSVFIFPPSDEQLKSGTASVVCLLNNFYPREAKVQWKVDNALQSGNSQESVTEQDSKDSTYSLSSTLTLSKADYEKHKVYACEVTHQGLSSPVTKSFNRGEC
B2: CE115HA000 G98K one-arm antibody (antibody, human IgG1, kappa, L234A L235A, N297A, name in Kabat numbering)
heavy: QVQLVESGGGVVQPGRSLRLSCAASGFTFSNAWMHWVRQAPGKGLEWVAQIKAKSNNYATYYAESVKGRFTISRDDSKNSLYLQMNSLKTEDTAVYYCRYVHYKAYYGVDAWGQGTTVTVSSASTKGPSVFPLAPSSKSTSGGTAALGCLVKDYFPEPVTVSWNSGALTSGVHTFPAVLQSSGLYSLSSVVTVPSSSLGTQTYICNVNHKPSNTKVDKKVEPKSCDKTHTCPPCPAPEAAGGPSVFLFPPKPKDTLMISRTPEVTCVVVDVSHEDPEVKFNWYVDGVEVHNAKTKPREEQYASTYRVVSVLTVLHQDWLNGKEYKCKVSNKALPAPIEKTISKAKGQPREPQVYTLPPSRCELTKNQVSLSCAVKGFYPSDIAVEWESNGQPENNYKTTPPVLDSDGSFFLVSKLTVDKSRWQQGNVFSCSVMHEALHNHYTQKSLSLSPDYKDDDDK
chain: EPKSSDKTHTCPPCPAPELLGGPSVFLFPPKPKDTLMISRTPEVTCVVVDVSHEDPEVKFNWYVDGVEVHNAKTKPREEQYNSTYRVVSVLTVLHQDWLNGKEYKCKVSNKALPAPIEKTISKAKGQPREPQVCTLPPSRDELTKNQVSLWCLVKGFYPSDIAVEWESNGQPENNYKTTPPVLDSDGSFFLYSKLTVDKSRWQQGNVFSCSVMHEALHNRYTQKSLSLSP
light: DIVMTQSPLSLPVTPGEPASISCRSSQSLVHSNRNTYLHWYQQKPGQAPRLLIYKVSNRFSGVPDRFSGSGSGTDFTLKISRVEAEDVGVYYCGQGTQVPYTFGQGTKLEIKRTVAAPSVFIFPPSDEQLKSGTASVVCLLNNFYPREAKVQWKVDNALQSGNSQESVTEQDSKDSTYSLSSTLTLSKADYEKHKVYACEVTHQGLSSPVTKSFNRGEC
B3: CE115HA000 D101R one-arm antibody (antibody, human IgG1, kappa, L234A L235A, N297A, name in Kabat numbering)
heavy: QVQLVESGGGVVQPGRSLRLSCAASGFTFSNAWMHWVRQAPGKGLEWVAQIKAKSNNYATYYAESVKGRFTISRDDSKNSLYLQMNSLKTEDTAVYYCRYVHYGAYYGVRAWGQGTTVTVSSASTKGPSVFPLAPSSKSTSGGTAALGCLVKDYFPEPVTVSWNSGALTSGVHTFPAVLQSSGLYSLSSVVTVPSSSLGTQTYICNVNHKPSNTKVDKKVEPKSCDKTHTCPPCPAPEAAGGPSVFLFPPKPKDTLMISRTPEVTCVVVDVSHEDPEVKFNWYVDGVEVHNAKTKPREEQYASTYRVVSVLTVLHQDWLNGKEYKCKVSNKALPAPIEKTISKAKGQPREPQVYTLPPSRCELTKNQVSLSCAVKGFYPSDIAVEWESNGQPENNYKTTPPVLDSDGSFFLVSKLTVDKSRWQQGNVFSCSVMHEALHNHYTQKSLSLSPDYKDDDDK
chain: EPKSSDKTHTCPPCPAPELLGGPSVFLFPPKPKDTLMISRTPEVTCVVVDVSHEDPEVKFNWYVDGVEVHNAKTKPREEQYNSTYRVVSVLTVLHQDWLNGKEYKCKVSNKALPAPIEKTISKAKGQPREPQVCTLPPSRDELTKNQVSLWCLVKGFYPSDIAVEWESNGQPENNYKTTPPVLDSDGSFFLYSKLTVDKSRWQQGNVFSCSVMHEALHNRYTQKSLSLSP
light: DIVMTQSPLSLPVTPGEPASISCRSSQSLVHSNRNTYLHWYQQKPGQAPRLLIYKVSNRFSGVPDRFSGSGSGTDFTLKISRVEAEDVGVYYCGQGTQVPYTFGQGTKLEIKRTVAAPSVFIFPPSDEQLKSGTASVVCLLNNFYPREAKVQWKVDNALQSGNSQESVTEQDSKDSTYSLSSTLTLSKADYEKHKVYACEVTHQGLSSPVTKSFNRGEC
B4: CE115HA000 D101K one-arm antibody (antibody, human IgG1, kappa, L234A L235A, N297A, name in Kabat numbering)
heavy: QVQLVESGGGVVQPGRSLRLSCAASGFTFSNAWMHWVRQAPGKGLEWVAQIKAKSNNYATYYAESVKGRFTISRDDSKNSLYLQMNSLKTEDTAVYYCRYVHYGAYYGVKAWGQGTTVTVSSASTKGPSVFPLAPSSKSTSGGTAALGCLVKDYFPEPVTVSWNSGALTSGVHTFPAVLQSSGLYSLSSVVTVPSSSLGTQTYICNVNHKPSNTKVDKKVEPKSCDKTHTCPPCPAPEAAGGPSVFLFPPKPKDTLMISRTPEVTCVVVDVSHEDPEVKFNWYVDGVEVHNAKTKPREEQYASTYRVVSVLTVLHQDWLNGKEYKCKVSNKALPAPIEKTISKAKGQPREPQVYTLPPSRCELTKNQVSLSCAVKGFYPSDIAVEWESNGQPENNYKTTPPVLDSDGSFFLVSKLTVDKSRWQQGNVFSCSVMHEALHNHYTQKSLSLSPDYKDDDDK
chain: EPKSSDKTHTCPPCPAPELLGGPSVFLFPPKPKDTLMISRTPEVTCVVVDVSHEDPEVKFNWYVDGVEVHNAKTKPREEQYNSTYRVVSVLTVLHQDWLNGKEYKCKVSNKALPAPIEKTISKAKGQPREPQVCTLPPSRDELTKNQVSLWCLVKGFYPSDIAVEWESNGQPENNYKTTPPVLDSDGSFFLYSKLTVDKSRWQQGNVFSCSVMHEALHNRYTQKSLSLSP
light: DIVMTQSPLSLPVTPGEPASISCRSSQSLVHSNRNTYLHWYQQKPGQAPRLLIYKVSNRFSGVPDRFSGSGSGTDFTLKISRVEAEDVGVYYCGQGTQVPYTFGQGTKLEIKRTVAAPSVFIFPPSDEQLKSGTASVVCLLNNFYPREAKVQWKVDNALQSGNSQESVTEQDSKDSTYSLSSTLTLSKADYEKHKVYACEVTHQGLSSPVTKSFNRGEC
B5: 154R4B03#1 one-arm antibody (antibody, human IgG1, kappa, L234A L235A, N297A)
heavy: QVQLVESGGGLVQPGRSLRLSCAASGFTFSNAWMHWVRQAPGKGLEWVAQIKDKQSQYANYYAPSVKGRFTISRDDSKNSIYLQMNSLKTEDTAVYYCRYVHYQSTSYSFYQGGVDAWGQGTTVTVSSASTKGPSVFPLAPSSKSTSGGTAALGCLVKDYFPEPVTVSWNSGALTSGVHTFPAVLQSSGLYSLSSVVTVPSSSLGTQTYICNVNHKPSNTKVDKKVEPKSCDKTHTCPPCPAPEAAGGPSVFLFPPKPKDTLMISRTPEVTCVVVDVSHEDPEVKFNWYVDGVEVHNAKTKPREEQYASTYRVVSVLTVLHQDWLNGKEYKCKVSNKALPAPIEKTISKAKGQPREPQVYTLPPSRCELTKNQVSLSCAVKGFYPSDIAVEWESNGQPENNYKTTPPVLDSDGSFFLVSKLTVDKSRWQQGNVFSCSVMHEALHNHYTQKSLSLSPDYKDDDDK
chain: EPKSSDKTHTCPPCPAPELLGGPSVFLFPPKPKDTLMISRTPEVTCVVVDVSHEDPEVKFNWYVDGVEVHNAKTKPREEQYNSTYRVVSVLTVLHQDWLNGKEYKCKVSNKALPAPIEKTISKAKGQPREPQVCTLPPSRDELTKNQVSLWCLVKGFYPSDIAVEWESNGQPENNYKTTPPVLDSDGSFFLYSKLTVDKSRWQQGNVFSCSVMHEALHNRYTQKSLSLSP
light: DIVMTQSPLSLPVTPGEPASISCRSSQSLVHSNRNTYLHWYQQKPGQAPRLLIYKVSNRFSGVPDRFSGSGSGTDFTLKISRVEAEDVGVYYCGQGTQVPYTFGQGTKLEIKRTVAAPSVFIFPPSDEQLKSGTASVVCLLNNFYPREAKVQWKVDNALQSGNSQESVTEQDSKDSTYSLSSTLTLSKADYEKHKVYACEVTHQGLSSPVTKSFNRGEC
notes: As m48
B6: 154R4B03#4 one-arm antibody (antibody, human IgG1, kappa, L234A L235A, N297A)
heavy: QVQLVESGGGLVQPGRSLRLSCAASGFTFSNAWMHWVRQAPGKGLEWVAQIKDKQSQYANYYAPSVKGRFTISRDDSKSSIYLQMNSLKTEDTAVYYCRYVHYQSTSYSFYQGGVDAWGQGTTVTVSSASTKGPSVFPLAPSSKSTSGGTAALGCLVKDYFPEPVTVSWNSGALTSGVHTFPAVLQSSGLYSLSSVVTVPSSSLGTQTYICNVNHKPSNTKVDKKVEPKSCDKTHTCPPCPAPEAAGGPSVFLFPPKPKDTLMISRTPEVTCVVVDVSHEDPEVKFNWYVDGVEVHNAKTKPREEQYASTYRVVSVLTVLHQDWLNGKEYKCKVSNKALPAPIEKTISKAKGQPREPQVYTLPPSRCELTKNQVSLSCAVKGFYPSDIAVEWESNGQPENNYKTTPPVLDSDGSFFLVSKLTVDKSRWQQGNVFSCSVMHEALHNHYTQKSLSLSPDYKDDDDK
chain: EPKSSDKTHTCPPCPAPELLGGPSVFLFPPKPKDTLMISRTPEVTCVVVDVSHEDPEVKFNWYVDGVEVHNAKTKPREEQYNSTYRVVSVLTVLHQDWLNGKEYKCKVSNKALPAPIEKTISKAKGQPREPQVCTLPPSRDELTKNQVSLWCLVKGFYPSDIAVEWESNGQPENNYKTTPPVLDSDGSFFLYSKLTVDKSRWQQGNVFSCSVMHEALHNRYTQKSLSLSP
light: DIVMTQSPLSLPVTPGEPASISCRSSQSLVHSNRNTYLHWYQQKPGQAPRLLIYKVSNRFSGVPDRFSGSGSGTDFTLKISRVEAEDVGVYYCGQGTQVPYTFGQGTKLEIKRTVAAPSVFIFPPSDEQLKSGTASVVCLLNNFYPREAKVQWKVDNALQSGNSQESVTEQDSKDSTYSLSSTLTLSKADYEKHKVYACEVTHQGLSSPVTKSFNRGEC
notes: As m48

The results in this text go back to patent US20260049138A1 (Chugai, published 2026).

Chain of CD3ε homodimer protein (P07766 23-126 limits assumed): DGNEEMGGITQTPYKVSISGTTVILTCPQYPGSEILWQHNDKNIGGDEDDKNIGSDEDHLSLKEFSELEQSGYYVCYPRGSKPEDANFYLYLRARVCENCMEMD

One test concerns the target CD3ε homodimer protein (human, UniProt P07766 23-126, limits assumed). Description: SPR Biacore T200, CD3e homodimer on chip. In general terms: SPR reads the build-up and loss of mass on a sensor chip optically.
Protocol: An appropriate amount of CD3ε homodimer protein was immobilized onto Sensor chip CM4 (GE Healthcare Japan Corp.) by the amine coupling method. Then, the antibody having an appropriate concentration was injected thereto as an analyte and allowed to interact with the CD3ε homodimer protein on the sensor chip. Then, the sensor chip was regenerated by the injection of 10 mmol/L glycine-HCl (pH 1.5). The assay was conducted at 25° C., and HBS-EP+ (GE Healthcare Japan Corp.) was used as a running buffer. […] Each parameter was calculated using Biacore T200 Evaluation Software (GE Healthcare Japan Corp.).
Regarding B1, the “KD ratio (KD of CE115HA000/KD of altered form)” value (shortened to “KD ratio”) was 0.88.

As for B2, the “KD ratio” value came out at 1.85.

Consider B3, for which the “KD ratio” value was 5.55.

As to B4, the “KD ratio” value was 4.32.

A further test addresses T1, human CD154. The test is described as follows: ECL competition, CD3ε[+]: CD3ε homodimer added as competitor [1].
Protocol: Next, each obtained IgG was evaluated for its binding to CD3 and human CD154 at the same time by the competition method (electrochemiluminescence method (ECL method)).
A TBST solution containing 0.5% BSA (referred to as a blocking solution; the TBST solution was TBS (manufactured by Takara Bio Inc.) supplemented with 0.1% Tween 20) was added at 150 μL/well to streptavidin plate (MSD K.K.), and the plate was incubated at room temperature for 1 hour or longer. After removal of the blocking solution, each well was washed three times with 250 μL of a TBST solution. The antibody-antigen complex solution was added thereto at 50 μL/well, and the plate was incubated at room temperature for 1 hour so that the biotinylated antigen-antibody-detection sulfo-tag antibody complex solution bound via the biotinylated antigen to the streptavidin plate. After removal of the antibody-antigen complex solution, each well was washed three times with a TBST solution, and a solution of 4×READ buffer (MSD K.K.) diluted 2-fold with water was added thereto at 150 μL/well, followed by the detection of the luminescence signal of the sulfo-tag using Sector Imager 2400 (MSD K.K.).
With B5, the “relative ECL reaction (to no antigen coating)” value amounted to 18.

Consider B6, for which the “relative ECL reaction (to no antigen coating)” value was found to be 20.
